± gives the uncertainty stated by the source.

77 sequences from the supplement of paper PMC7877785 can be followed below.

The nature of the data set: self-splicing fitness, log relative to wild type (ln ratio); higher = more splicing; Tetrahymena group I intron in knt gene, E. coli kanamycin selection, DiMSum; sequences stand for … in CUCUCU…GGAGGGAAAAGUUAUCAGGCAUGCACCUGGUAGCUAGUCUUUAAACCAAUAGAUUGCAUCGGUUUAAAAGGCAAGACCGUCAAAUUGCGGGAAAGGGGUCAACAGCCGUUCAGUACCAAGUCUCAGGGGAAACUUUGAGAUGGCCUUGCAAAGGGUAUGGUAAUAAGCUGACGGACAUGGUCCUAACCACGCAGCCAAGUCCUAAGUCAACAGAUCUUCUGUUGAUAUGGAUGCAGUUCACAGACUAAAUGUCGGUCGGGGAAGAUGUAUUCUUCUCAUAAGAUAUAGUCGGACCUCUCCUUAAUGGGAGCUAGCGGAUGAAGUGAUGCAACACUGGAGCCGCUGGGAACUAAUUUGUAUGCGAAAGUAUAUUGAUUAGUUUUGGAGUACUCGUGGUCG
An outline of the steps:
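Library with all eight P1ex-region intron nucleotides randomised, intron inside the knt kanamycin-resistance gene on pET-22b(+), in E. coli BL21(DE3). Cells grew overnight at 37°C or 30°C on LB agar with or without 25 μg/mL kanamycin (plus 100 μg/mL carbenicillin, 50 μM IPTG, 0.2% rhamnose), in six replicate transformations. Pooled colonies were amplicon-sequenced on Illumina HiSeq 2500. DiMSum fitness is the error-weighted combination of wild-type-normalised replicate fold changes, kanamycin versus none.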

Regarding UCUCAGCAAUAUUACGUCGG, the “self-splicing fitness (ln)” value reads like this: (30 °C) -1.51 ± 0.085; (37 °C) -1.22 ± 0.11.
As for GCCCAGCAAUAUUACGAUGC, the “self-splicing fitness (ln)” value was -0.328 ± 0.055 (30 °C) and 0.257 ± 0.076 (37 °C).
For GUGUAGCAAUAUUACGCGUA, the “self-splicing fitness (ln)” value (30 °C) is -1.82 ± 0.26 and the “self-splicing fitness (ln)” value (37 °C) is -0.729 ± 0.17.
As for AGUGAGCAAUAUUACGGGUA, the “self-splicing fitness (ln)” value was -3.22 ± 0.23 (30 °C) and -1.61 ± 0.26 (37 °C).
In the case of AUAGAGCAAUAUUACGCUAC, the “self-splicing fitness (ln)” value by setting is: (30 °C) -2.79 ± 0.2; (37 °C) -2.36 ± 0.2.
As for CGAAAGCAAUAUUACGCAAA, the “self-splicing fitness (ln)” value is -2.59 ± 0.26 (30 °C) and -2.35 ± 0.32 (37 °C).
With UAUGAGCAAUAUUACGCAGU, the “self-splicing fitness (ln)” value reads like this: (30 °C) -1.98 ± 0.24; (37 °C) -0.419 ± 0.21.
As for CCGCAGCAAUAUUACGCUCU, the “self-splicing fitness (ln)” value was -4.04 ± 0.42 (30 °C) and -2.18 ± 0.2 (37 °C).
Consider CGAAAGCAAUAUUACGUACA, for which the “self-splicing fitness (ln)” value is, setting by setting: (30 °C) -1.25 ± 0.14; (37 °C) -1.23 ± 0.15.
Turning to ACAUAGCAAUAUUACGCGGU, the “self-splicing fitness (ln)” value (30 °C) was -3.36 ± 0.17 and the “self-splicing fitness (ln)” value (37 °C) was -2.86 ± 0.26.
Consider UGUUAGCAAUAUUACGUCGA, for which the “self-splicing fitness (ln)” value runs as follows: (30 °C) -0.909 ± 0.12; (37 °C) 0.0206 ± 0.13.
In the same order, the values of GUUAAGCAAUAUUACGAUGU are -1.16 ± 0.088 and 0.226 ± 0.13.
In the same order, the values of GUACAGCAAUAUUACGGCGG are -2.78 ± 0.19 and -2.66 ± 0.22.
In the same order, the values of CGAUAGCAAUAUUACGUAGA are -3.31 ± 0.17 and -1.3 ± 0.13.
In the case of CGACAGCAAUAUUACGUCCA, the “self-splicing fitness (ln)” value runs as follows: (30 °C) -0.437 ± 0.066; (37 °C) -0.321 ± 0.081.
With AUCUAGCAAUAUUACGUCGG, the “self-splicing fitness (ln)” value is -3.23 ± 0.2 (30 °C) and -2.72 ± 0.27 (37 °C).
For the sequence UUACAGCAAUAUUACGACCA, the “self-splicing fitness (ln)” value reads like this: (30 °C) -0.658 ± 0.14; (37 °C) -0.854 ± 0.18.
Turning to GGGCAGCAAUAUUACGUGCG, the “self-splicing fitness (ln)” value runs as follows: (30 °C) -0.439 ± 0.057; (37 °C) -0.235 ± 0.077.
ACUAAGCAAUAUUACGACUG: the “self-splicing fitness (ln)” value was -0.95 ± 0.065 (30 °C) and -0.652 ± 0.089 (37 °C).
Take UAGCAGCAAUAUUACGGAAA: the “self-splicing fitness (ln)” value (30 °C) was -1.82 ± 0.17 and the “self-splicing fitness (ln)” value (37 °C) was -1.81 ± 0.29.
For the sequence GAUCAGCAAUAUUACGUAAG, the “self-splicing fitness (ln)” value runs as follows: (30 °C) -1.58 ± 0.097; (37 °C) -1.13 ± 0.12.
UUUCAGCAAUAUUACGACAA: the “self-splicing fitness (ln)” value is -0.0726 ± 0.12 (30 °C) and -0.913 ± 0.14 (37 °C).
Take UGAAAGCAAUAUUACGGGUA: the “self-splicing fitness (ln)” value is -1.01 ± 0.1 (30 °C) and -0.387 ± 0.097 (37 °C).
In the same order, the values of GAGUAGCAAUAUUACGCCAC are -3.64 ± 0.28 and -0.452 ± 0.21.
Take GGGAAGCAAUAUUACGUAGG: the “self-splicing fitness (ln)” value is, setting by setting: (30 °C) -3.64 ± 0.32; (37 °C) -0.93 ± 0.11.
In the same order, the values of UUUCAGCAAUAUUACGCCGU are -3.39 ± 0.36 and -1.45 ± 0.26.
UUCCAGCAAUAUUACGGCAA: the “self-splicing fitness (ln)” value runs as follows: (30 °C) -0.0711 ± 0.1; (37 °C) 0.362 ± 0.12.
In the same order, the values of GGUCAGCAAUAUUACGUUAU are -0.97 ± 0.092 and -0.158 ± 0.1.
Turning to CAGGAGCAAUAUUACGGUGG, the “self-splicing fitness (ln)” value (30 °C) was -1.91 ± 0.14 and the “self-splicing fitness (ln)” value (37 °C) amounted to 0.146 ± 0.1.
With GUGUAGCAAUAUUACGGGCC, the “self-splicing fitness (ln)” value was -1.6 ± 0.23 (30 °C) and -1.85 ± 0.48 (37 °C).
Regarding UUCGAGCAAUAUUACGAUAA, the “self-splicing fitness (ln)” value is -1.53 ± 0.097 (30 °C) and -0.787 ± 0.11 (37 °C).
For AAGCAGCAAUAUUACGAGAU, the “self-splicing fitness (ln)” value by setting is: (30 °C) -3.14 ± 0.17; (37 °C) -1.61 ± 0.14.
With CCGGAGCAAUAUUACGCCAG, the “self-splicing fitness (ln)” value (30 °C) is -3.49 ± 0.2 and the “self-splicing fitness (ln)” value (37 °C) was -2.31 ± 0.24.
In the same order, the values of CACAAGCAAUAUUACGAGCG are -0.656 ± 0.099 and 0.331 ± 0.1.
In the same order, the values of CCUCAGCAAUAUUACGUCUA are -3.41 ± 0.26 and -2.46 ± 0.28.
In the same order, the values of AUUAAGCAAUAUUACGUGGG are -3.45 ± 0.17 and -2.44 ± 0.16.
Turning to GCCAAGCAAUAUUACGAAGA, the “self-splicing fitness (ln)” value is -2.96 ± 0.21 (30 °C) and -1.39 ± 0.17 (37 °C).
Regarding GCUCAGCAAUAUUACGACCC, the “self-splicing fitness (ln)” value runs as follows: (30 °C) -0.644 ± 0.14; (37 °C) 0.378 ± 0.19.
In the same order, the values of GUAGAGCAAUAUUACGUGAG are -2.33 ± 0.15 and -0.687 ± 0.16.
As to CAACAGCAAUAUUACGCCGC, the “self-splicing fitness (ln)” value (30 °C) was -4.57 ± 0.34.
For CUACAGCAAUAUUACGCUGU, the “self-splicing fitness (ln)” value reads like this: (30 °C) -3.9 ± 0.2; (37 °C) -2.8 ± 0.22.
In the case of UCUAAGCAAUAUUACGUUAA, the “self-splicing fitness (ln)” value is, setting by setting: (30 °C) -3.72 ± 0.32; (37 °C) -1.67 ± 0.2.
Regarding CUGUAGCAAUAUUACGUCUA, the “self-splicing fitness (ln)” value (37 °C) was -1.78 ± 0.39.
On to CUGUAGCAAUAUUACGCGAC, for which the “self-splicing fitness (ln)” value is -2.56 ± 0.2 (30 °C) and -2.41 ± 0.28 (37 °C).
Take GUAAAGCAAUAUUACGAUUG: the “self-splicing fitness (ln)” value (30 °C) was -2.98 ± 0.18 and the “self-splicing fitness (ln)” value (37 °C) is -0.942 ± 0.22.
For the sequence CUUCAGCAAUAUUACGCGUA, the “self-splicing fitness (ln)” value was -2.92 ± 0.18 (30 °C) and -2.46 ± 0.17 (37 °C).
With CUGGAGCAAUAUUACGAACG, the “self-splicing fitness (ln)” value runs as follows: (30 °C) -0.869 ± 0.15; (37 °C) 0.129 ± 0.16.
On to UUUCAGCAAUAUUACGACUA, for which the “self-splicing fitness (ln)” value is, setting by setting: (30 °C) 0.605 ± 0.12; (37 °C) 0.612 ± 0.12.
In the same order, the values of AAGGAGCAAUAUUACGGGGA are -3.91 ± 0.29 and -2.25 ± 0.25.
GUCUAGCAAUAUUACGUUUA: the “self-splicing fitness (ln)” value (30 °C) is -0.64 ± 0.12 and the “self-splicing fitness (ln)” value (37 °C) was -1 ± 0.1.
As for AUCAAGCAAUAUUACGCUUU, the “self-splicing fitness (ln)” value runs as follows: (30 °C) -3.57 ± 0.15; (37 °C) -2.31 ± 0.12.
In the case of CUAAAGCAAUAUUACGAGAG, the “self-splicing fitness (ln)” value was -1.13 ± 0.075 (30 °C) and -0.601 ± 0.099 (37 °C).
With CUACAGCAAUAUUACGUCGU, the “self-splicing fitness (ln)” value runs as follows: (30 °C) -3.3 ± 0.35; (37 °C) -2.83 ± 0.25.
Consider GGAGAGCAAUAUUACGGAUC, for which the “self-splicing fitness (ln)” value was -1.91 ± 0.12 (30 °C) and -0.404 ± 0.14 (37 °C).
CGGUAGCAAUAUUACGCUUG: the “self-splicing fitness (ln)” value by setting is: (30 °C) -2.07 ± 0.14; (37 °C) -0.206 ± 0.14.
For AGAUAGCAAUAUUACGAAGU, the “self-splicing fitness (ln)” value by setting is: (30 °C) -3.27 ± 0.14; (37 °C) -1.83 ± 0.13.
As to ACACAGCAAUAUUACGGGCG, the “self-splicing fitness (ln)” value was -0.978 ± 0.048 (30 °C) and -0.369 ± 0.062 (37 °C).
In the same order, the values of GCAAAGCAAUAUUACGACGU are 0.0721 ± 0.072 and 0.116 ± 0.096.
In the same order, the values of CACGAGCAAUAUUACGGUCA are -4.22 ± 0.39 and -1.54 ± 0.16.
For the sequence GGUAAGCAAUAUUACGGGAA, the “self-splicing fitness (ln)” value runs as follows: (30 °C) -2.54 ± 0.39; (37 °C) -2.06 ± 0.32.
As to GUUUAGCAAUAUUACGGAUA, the “self-splicing fitness (ln)” value was -2.77 ± 0.27 (30 °C) and -1.37 ± 0.19 (37 °C).
Consider GGGUAGCAAUAUUACGGUCU, for which the “self-splicing fitness (ln)” value is -0.845 ± 0.08 (30 °C) and -0.011 ± 0.11 (37 °C).
In the same order, the values of CAUCAGCAAUAUUACGCCCU are -2.55 ± 0.36 and -1.54 ± 0.43.
Take UAGGAGCAAUAUUACGACGU: the “self-splicing fitness (ln)” value (37 °C) was -1.9 ± 0.38.
On to GUAUAGCAAUAUUACGCUCG, for which the “self-splicing fitness (ln)” value by setting is: (30 °C) -0.631 ± 0.15; (37 °C) -0.0296 ± 0.19.
In the same order, the values of UUACAGCAAUAUUACGGCAC are -1.77 ± 0.17 and -2.26 ± 0.18.
For the sequence CUAGAGCAAUAUUACGCCAC, the “self-splicing fitness (ln)” value (37 °C) was -3.44 ± 0.47.
AGAAAGCAAUAUUACGUCUC: the “self-splicing fitness (ln)” value (30 °C) is -2.56 ± 0.43.
For the sequence CCUAAGCAAUAUUACGCGUG, the “self-splicing fitness (ln)” value is, setting by setting: (30 °C) -3.34 ± 0.13; (37 °C) -2.48 ± 0.13.
For the sequence UAGAAGCAAUAUUACGGUCG, the “self-splicing fitness (ln)” value runs as follows: (30 °C) -0.229 ± 0.1; (37 °C) 0.153 ± 0.14.
Take CAUGAGCAAUAUUACGCGUC: the “self-splicing fitness (ln)” value (37 °C) was -2.76 ± 0.31.
For AUGAAGCAAUAUUACGAUGG, the “self-splicing fitness (ln)” value was -3.18 ± 0.18 (30 °C) and -1.92 ± 0.16 (37 °C).
For the sequence GCUCAGCAAUAUUACGGCAC, the “self-splicing fitness (ln)” value was -1.11 ± 0.21 (30 °C) and -0.084 ± 0.21 (37 °C).
Take GCUGAGCAAUAUUACGUUUC: the “self-splicing fitness (ln)” value reads like this: (30 °C) -1.94 ± 0.18; (37 °C) -1.55 ± 0.2.
AGGCAGCAAUAUUACGCCCU: where the note is “30 °C”, the “self-splicing fitness (ln)” value is -2.89 ± 0.4.
As to AUCAAGCAAUAUUACGUAGA, the “self-splicing fitness (ln)” value was -1.36 ± 0.094 (30 °C) and -1.66 ± 0.17 (37 °C).
For the sequence AAGUAGCAAUAUUACGGACU, the “self-splicing fitness (ln)” value is -0.577 ± 0.11 (30 °C) and -0.212 ± 0.15 (37 °C).
